From US20230295284A1 (published 2023) come the findings set out here.

To fix the notation:
B1: LMJ2.4C (VHH)
VHH: QVQLVEAGGGLVQAGGSLRLSCAASGSTFSHSAGGWYRQAPEKQRELVAGIRSDGNINYADSVKDRFTISRDNASNTMYLQMNNLKPEDTAVYVCNIRGSYGNTYYSRWGQGIQVTVSS
modifications: sortase-tagged with biotin in the Western blots ; Purified by a his-tag for BLI and sortase-tagged with biotin in the Western blots. The tag letters are not stated for the free nanobody, so they are left out.
B2: LMJ2.5I (VHH)
VHH: RVQLVETGGGLVQAGGSLRLSCAVSGSTFSHSAGGWYRQAPEKQRELVAGIRSDGNINYADSVKDRFTISRDNASNTMYLQMNNLKPEDTAVYVCNIRGSYGNTYYSRWGQGAQVTVSS
modifications: sortase-tagged with biotin in the Western blots ; Purified by a his-tag for BLI and sortase-tagged with biotin in the Western blots. The tag letters are not stated for the free nanobody, so they are left out.
B3: NJB2 (parental nanobody) (VHH)
VHH: QVQLVETGGGLVQAGGSLRLSCAASGSTFSHNAGGWYRQAPEKQRELVAGISSDGNINYADSVKDRFTISRDNASNTMYLQMNNLKPEDTAVYVCNIRGSYGNTYYSRWGQGTQVTVSS
modifications: Purified by a his-tag. Its letters and position are not stated for the free nanobody, so it is left out.
B4: LMJ2.5C (VHH)
VHH: QVQLVETGGGLVQAGGSLRLSCAASGSTFSHSAGGWYRQAPEKQRELVAGVRSDGNINYADSVKDRFTISRDNASNTMYLQMNNLKPEDTAVYVCNIRGSYGNTYYSRWGQGIQVTVSS
modifications: sortase-tagged with biotin in the Western blots ; Purified by a his-tag for BLI and sortase-tagged with biotin in the Western blots. The tag letters are not stated for the free nanobody, so they are left out.
B5: LMJ1.2C (VHH)
VHH: QVQLVETGGGLVQAGGSLRLSCAASGSTFSHSAGGWYRQAPEKQRELVAGIRSDGNINYADSVKDRFTISRDNASNTMYLQMNNLKPEDTAVYVCNIRGSYGNTYYSRWGQGTQVTVSS
modifications: sortase-tagged with biotin in the Western blots ; Purified by a his-tag for BLI and sortase-tagged with biotin in the Western blots. The tag letters are not stated for the free nanobody, so they are left out.
B6: LMJ1.3J (VHH)
VHH: QVQLVGTGGGLVQAGGSLRLSCAASGSTFSHSAGGWYRQAPEKQRELVAGISSAGNINYADSVKDRFTISRDNASNTMYLQMNNLKPEDTAVYVCNIRGSYGNTYYSRWGQGTQVTVSS
modifications: sortase-tagged with biotin in the Western blots ; Purified by a his-tag for BLI and sortase-tagged with biotin in the Western blots. The tag letters are not stated for the free nanobody, so they are left out.
B7: LMJ2.5J (VHH)
VHH: QVQLVETRGGLVQAGGSLRLSCAVSGSTFSHSAGGWYRQAPEKQRELVAGIGSAGNINYADSVKDRFTISRDNASNTMYLQMNNLKPEDTAVYVCNIRGSYGNTYYSRWGQGTQVTVSS
modifications: sortase-tagged with biotin in the Western blots ; Western blots used the nanobody sortase-tagged with biotin at a terminus. The BLI material was his-tag purified. Tag letters are not stated for the stand-alone nanobody and are left out.
B8: LMJ2.6A (VHH)
VHH: RVQLVETGGGLVQAGGSLRLSCAVSGRTFSHSAGGWYRQAPEKQRELVAGIRSDGNINYADSVKDRFTISRDNASNTMYLQMNNLKPGDTAVYVCNIRGSYGNTYYSRWGQGTQVTVSS
modifications: sortase-tagged with biotin in the Western blots ; Purified by a his-tag for BLI and sortase-tagged with biotin in the Western blots. The tag letters are not stated for the free nanobody, so they are left out.
B9: LMJ2.5H (VHH)
VHH: QVQLVETGGGLVQAGGSLRLSCAVSGSTFSHSAGGWYRQAPEKQRELVAGIRSDGNINYADSVKDRFTISRDNASNTMYLQMNNLKPEDTAVYVCNIRGSYGNTYYSRWGQGTQVTVSS
modifications: sortase-tagged with biotin in the Western blots ; Western blots used the nanobody sortase-tagged with biotin at a terminus. The BLI material was his-tag purified. Tag letters are not stated for the stand-alone nanobody and are left out.
B10: LMJ2.5G (VHH)
VHH: QVQLVETEGGLVQAGGSLRLSCAASGSTFSHSAGGWYRQAPEKQRELVAGIRSDGNINYADSVKDRFTISRDNASNTMYLQMNNLKPEDTAVYVCNIRGSYGNTYYSRWGQGTQVTVSS
modifications: sortase-tagged with biotin in the Western blots ; Western blots used the nanobody sortase-tagged with biotin at a terminus. The BLI material was his-tag purified. Tag letters are not stated for the stand-alone nanobody and are left out.
B11: LMJ1.2G (VHH)
VHH: QVQLVETGGGLVQAGGSLRLSCAASGSTFSHSAGGWYRQAPEKQRELVAGIGSDGNINYADSVKDRFTISRDNASNTMYLQMNNLKPEDTAVYVCNIRGSYGNTYYSRWGQGTQVTVSS
modifications: sortase-tagged with biotin in the Western blots ; Purified by a his-tag for BLI and sortase-tagged with biotin in the Western blots. The tag letters are not stated for the free nanobody, so they are left out.

For this experiment, the target named is FN-EIIIB. Kind of experiment: BLI. Background: Biolayer interferometry detects binding as a change in optical thickness at a sensor tip.
Chain of FN-EIIIB (chain, as listed by the source): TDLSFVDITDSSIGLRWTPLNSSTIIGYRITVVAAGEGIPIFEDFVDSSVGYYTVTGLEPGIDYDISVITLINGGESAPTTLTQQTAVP
One may read the Kd as the concentration at which binding is half-saturated. A higher Kd goes with lower affinity. Molecule B1 had a Kd of 62.6 pM. The value for B2 was 25.4 pM. Then B3, with 1820 pM; and B4, with 78.5 pM; and B5, with 300 pM. The molecule B6 returned a Kd of 402 pM. On to B7, for which the affinity, expressed as Kd, was 62.2 pM. The value for B8 was 344 pM; that for B9 was 227 pM. Then B10, with 166 pM; and B11, with 973 pM.
